Assays:
[1] = biological target: Endogenous human IL-1B (THP1 supernatants) (human) (UniProt P01584); assay: cell-based or functional assay
[2] = biological target: recombinant human IL-1B (human) (UniProt P01584); assay: cell-based or functional assay

IC90, Endogenous human IL-1 B (THP1 supernatants), HEK blue [1]: 0.292 nM
IC50, rec. human IL-1 B, HEK blue [2]: 0.068 nM
IC50, rec. human IL-1 B, MRC-5 (IL-6 production) [2]: 0.032 nM
IC90, rec. human IL-1 B, HEK blue [2]: 0.503 nM
IC90, rec. human IL-1 B, MRC-5 (IL-6 production) [2]: 0.449 nM
Substance: ACZ885 (disclosed in WO 2002/016436) (antibody)

Source: patent WO2016008851A1
